± gives the standard deviation of the averaged measurements.
How the values were obtained:
MCF7 = experiment: percentage of EdU-negative (G0-arrested) nuclei per well, 72 h; higher = more G0 arrest; conditions: reference: sequence is the full UniProt precursor, the tested protein was the secreted form or ectodomain
hTERT-HMEC = experiment: as above; conditions: reference: sequence is the full UniProt precursor, the tested protein was the secreted form or ectodomain
[1] = protein concentration 0.0214286 µM
[2] = protein concentration 0.0225 µM
[3] = protein concentration 0.214286 µM
[4] = protein concentration 0.01675 µM
[5] = protein concentration 0.1675 µM
[6] = protein concentration 0.00742857 µM
[7] = protein concentration 0.0742857 µM
[8] = protein concentration 0.00625 µM
[9] = protein concentration 0.0625 µM
[10] = protein concentration 0.03125 µM
[11] = protein concentration 0.3125 µM
[12] = protein concentration 0.0165825 µM
[13] = protein concentration 0.165825 µM
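Also: secreted proteins added to cultured cells, EdU pulse at the end, nuclei found by Hoechst imaging, EdU status from nuclear versus surrounding ring intensity ratio, PBS as neutral control.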

Sequence	percentage of EdU-negative (MCF7; [2])	percentage of EdU-negative (MCF7; protein concentration 0.225 µM)	percentage of EdU-negative (hTERT-HMEC; [2])	percentage of EdU-negative (hTERT-HMEC; protein concentration 0.225 µM)	further results
MGPWSRSLSALLLLLQVSSWLCQEPEPCHPGFDAESYTFTVPRRHLERGRVLGRVNFEDCTGRQRTAYFSLDTRFKVGTDGVITVKRPLRFHNPQIHFLVYAWDSTYRKFSTKVTLNTVGHHHRPPPHQASVSGIQAELLTFPNSSPGLRRQKRDWVIPPISCPENEKGPFPKNLVQIKSNKDKEGKVFYSITGQGADTPPVGVFIIERETGWLKVTEPLDRERIATYTLFSHAVSSNGNAVEDPMEILITVTDQNDNKPEFTQEVFKGSVMEGALPGTSVMEVTATDADDDVNTYNAAIAYTILSQDPELPDKNMFTINRNTGVISVVTTGLDRESFPTYTLVVQAADLQGEGLSTTATAVITVTDTNDNPPIFNPTTYKGQVPENEANVVITTLKVTDADAPNTPAWEAVYTILNDDGGQFVVTTNPVNNDGILKTAKGLDFEAKQQYILHVAVTNVVPFEVSLTTSTATVTVDVLDVNEAPIFVPPEKRVEVSEDFGVGQEITSYTAQEPDTFMEQKITYRIWRDTANWLEINPDTGAISTRAELDREDFEHVKNSTYTALIIATDNGSPVATGTGTLLLILSDVNDNAPIPEPRTIFFCERNPKPQVINIIDADLPPNTSPFTAELTHGASANWTIQYNDPTQESIILKPKMALEVGDYKINLKLMDNQNKDQVTTLEVSVCDCEGAAGVCRKAQPVEAGLQIPAILGILGGILALLILILLLLLFLRRRAVVKEPLLPPEDDTRDNVYYYDEEGGGEEDQDFDLSQLHRGLDARPEVTRNDVAPTLMSVPRYLPRPANPDEIGNFIDENLKAADTDPTAPPYDSLLVFDYEGSGSEAASLSSLNSSESDKDQDYDYLNEWGNRFKKLADMYGGGEDD	26.2 ± 3.6%	28.91 ± 0.16%	4.93 ± 0.37%	23.4 ± 1.1%	percentage of EdU-negative (MCF7; [1]): 23.8 ± 3.6%; percentage of EdU-negative (MCF7; [3]): 26.8 ± 1.9%; percentage of EdU-negative (hTERT-HMEC; [1]): 5.09 ± 0.58%; percentage of EdU-negative (hTERT-HMEC; [3]): 6.74 ± 0.63%
MGPLINRCKKILLPTTVPPATMRIWLLGGLLPFLLLLSGLQRPTEGSEVAIKIDFDFAPGSFDDQYQGCSKQVMEKLTQGDYFTKDIEAQKNYFRMWQKAHLAWLNQGKVLPQNMTTTHAVAILFYTLNSNVHSDFTRAMASVARTPQQYERSFHFKYLHYYLTSAIQLLRKDSIMENGTLCYEVHYRTKDVHFNAYTGATIRFGQFLSTSLLKEEAQEFGNQTLFTIFTCLGAPVQYFSLKKEVLIPPYELFKVINMSYHPRGDWLQLRSTGNLSTYNCQLLKASSKKCIPDPIAIASLSFLTSVIIFSKSRV	23.9 ± 0.46%	27.2 ± 0.8%	5.08 ± 0.63%	6.69 ± 0.27%	–
MFKCWSVVLVLGFIFLESEGRPTKEGGYGLKSYQPLMRLRHKQEKNQESSRVKGFMIQDGPFGSCENKYCGLGRHCVTSRETGQAECACMDLCKRHYKPVCGSDGEFYENHCEVHRAACLKKQKITIVHNEDCFFKGDKCKTTEYSKMKNMLLDLQNQKYIMQENENPNGDDISRKKLLVDQMFKYFDADSNGLVDINELTQVIKQEELGKDLFDCTLYVLLKYDDFNADKHLALEEFYRAFQVIQLSLPEDQKLSITAATVGQSAVLSCAIQGTLRPPIIWKRNNIILNNLDLEDINDFGDDGSLYITKVTTTHVGNYTCYADGYEQVYQTHIFQVNVPPVIRVYPESQAREPGVTASLRCHAEGIPKPQLGWLKNGIDITPKLSKQLTLQANGSEVHISNVRYEDTGAYTCIAKNEAGVDEDISSLFVEDSARKTLANILWREEGLGIGNMFYVFYEDGIKVIQPIECEFQRHIKPSEKLLGFQDEVCPKAEGDEVQRCVWASAVNVKDKFIYVAQPTLDRVLIVDVQSQKVVQAVSTDPVPVKLHYDKSHDQVWVLSWGTLEKTSPTLQVITLASGNVPHHTIHTQPVGKQFDRVDDFFIPTTTLIITHMRFGFILHKDEAALQKIDLETMSYIKTINLKDYKCVPQSLAYTHLGGYYFIGCKPDSTGAVSPQVMVDGVTDSVIGFNSDVTGTPYVSPDGHYLVSINDVKGLVRVQYITIRGEIQEAFDIYTNLHISDLAFQPSFTEAHQYNIYGSSSTQTDVLFVELSSGKVKMIKSLKEPLKAEEWPWNRKNRQIQDSGLFGQYLMTPSKDSLFILDGRLNKLNCEITEVEKGNTVIWVGDA [Q8N475]	–	–	–	–	percentage of EdU-negative (MCF7; [4]): 24.2 ± 4.5%; percentage of EdU-negative (MCF7; [5]): 26.4 ± 1.8%; percentage of EdU-negative (hTERT-HMEC; [4]): 4.72 ± 1.2%; percentage of EdU-negative (hTERT-HMEC; [5]): 6.54 ± 0.16%
MGALARALPSILLALLLTSTPEALGANPGLVARITDKGLQYAAQEGLLALQSELLRITLPDFTGDLRIPHVGRGRYEFHSLNIHSCELLHSALRPVPGQGLSLSISDSSIRVQGRWKVRKSFFKLQGSFDVSVKGISISVNLLLGSESSGRPTVTASSCSSDIADVEVDMSGDLGWLLNLFHNQIESKFQKVLESRICEMIQKSVSSDLQPYLQTLPVTTEIDSFADIDYSLVEAPRATAQMLEVMFKGEIFHRNHRSPVTLLAAVMSLPEEHNKMVYFAISDYVFNTASLVYHEEGYLNFSITDDMIPPDSNIRLTTKSFRPFVPRLARLYPNMNLELQGSVPSAPLLNFSPGNLSVDPYMEIDAFVLLPSSSKEPVFRLSVATNVSATLTFNTSKITGFLKPGKVKVELKESKVGLFNAELLEALLNYYILNTFYPKFNDKLAEGFPLPLLKRVQLYDLGLQIHKDFLFLGANVQYMRV	–	–	–	–	percentage of EdU-negative (MCF7; [6]): 23.1 ± 3.5%; percentage of EdU-negative (MCF7; [7]): 26.4 ± 0.82%; percentage of EdU-negative (hTERT-HMEC; [6]): 5.11 ± 0.45%; percentage of EdU-negative (hTERT-HMEC; [7]): 7.684 ± 0.069%
MLLAWVQAFLVSNMLLAEAYGSGGCFWDNGHLYREDQTSPAPGLRCLNWLDAQSGLASAPVSGAGNHSYCRNPDEDPRGPWCYVSGEAGVPEKRPCEDLRCPETTSQALPAFTTEIQEASEGPGADEVQVFAPANALPARSEAAAVQPVIGISQRVRMNSKEKKDLGTLGYVLGITMMVIIIAIGAGIILGYSYKRGKDLKEQHDQKVCEREMQRITLPLSAFTNPTCEIVDEKTVVVHTSQTPVDPQEGTTPLMGQAGTPGA [Q96FE7]	24.9 ± 2%	25.1 ± 0.47%	4.79 ± 0.62%	5.22 ± 0.39%	–
MGKSESQMDITDINTPKPKKKQRWTPLEISLSVLVLLLTIIAVTMIALYATYDDGICKSSDCIKSAARLIQNMDATTEPCTDFFKYACGGWLKRNVIPETSSRYGNFDILRDELEVVLKDVLQEPKTEDIVAVQKAKALYRSCINESAIDSRGGEPLLKLLPDIYGWPVATENWEQKYGASWTAEKAIAQLNSKYGKKVLINLFVGTDDKNSVNHVIHIDQPRLGLPSRDYYECTGIYKEACTAYVDFMISVARLIRQEERLPIDENQLALEMNKVMELEKEIANATAKPEDRNDPMLLYNKMTLAQIQNNFSLEINGKPFSWLNFTNEIMSTVNISITNEEDVVVYAPEYLTKLKPILTKYSARDLQNLMSWRFIMDLVSSLSRTYKESRNAFRKALYGTTSETATWRRCANYVNGNMENAVGRLYVEAAFAGESKHVVEDLIAQIREVFIQTLDDLTWMDAETKKRAEEKALAIKERIGYPDDIVSNDNKLNNEYLELNYKEDEYFENIIQNLKFSQSKQLKKLREKVDKDEWISGAAVVNAFYSSGRNQIVFPAGILQPPFFSAQQSNSLNYGGIGMVIGHEITHGFDDNGRNFNKDGDLVDWWTQQSASNFKEQSQCMVYQYGNFSWDLAGGQHLNGINTLGENIADNGGLGQAYRAYQNYIKKNGEEKLLPGLDLNHKQLFFLNFAQVWCGTYRPEYAVNSIKTDVHSPGNFRIIGTLQNSAEFSEAFHCRKNSYMNPEKKCRVW	–	–	–	–	percentage of EdU-negative (MCF7; [8]): 25 ± 1.8%; percentage of EdU-negative (MCF7; [9]): 27.41 ± 0.064%; percentage of EdU-negative (hTERT-HMEC; [8]): 4.08 ± 0.18%; percentage of EdU-negative (hTERT-HMEC; [9]): 5.51 ± 0.24%
MALPFVLLMALVVLNCKSICSLGCDLPQTHSLSNRRTLMIMAQMGRISPFSCLKDRHDFGFPQEEFDGNQFQKAQAISVLHEMIQQTFNLFSTKDSSATWDETLLDKFYTELYQQLNDLEACMMQEVGVEDTPLMNVDSILTVRKYFQRITLYLTEKKYSPCAWEVVRAEIMRSFSLSANLQERLRRKE	–	–	–	–	percentage of EdU-negative (MCF7; [10]): 45.45 ± 0.21%; percentage of EdU-negative (MCF7; [11]): 48.29 ± 0.24%; percentage of EdU-negative (hTERT-HMEC; [10]): 22.9 ± 1.4%; percentage of EdU-negative (hTERT-HMEC; [11]): 28.6 ± 0.61%
MLALLAASVALAVAAGAQDSPAPGSRFVCTALPPEAVHAGCPLPAMPMQGGAQSPEEELRAAVLQLRETVVQQKETLGAQREAIRELTGKLARCEGLAGGKARGAGATGKDTMGDLPRDPGHVVEQLSRSLQTLKDRLESLEHQLRANVSNAGLPGDFREVLQQRLGELERQLLRKVAELEDEKSLLHNETSAHRQKTESTLNALLQRVTELERGNSAFKSPDAFKVSLPLRTNYLYGKIKKTLPELYAFTICLWLRSSASPGIGTPFSYAVPGQANEIVLIEWGNNPIELLINDKVAQLPLFVSDGKWHHICVTWTTRDGMWEAFQDGEKLGTGENLAPWHPIKPGGVLILGQEQDTVGGRFDATQAFVGELSQFNIWDRVLRAQEIVNIANCSTNMPGNIIPWVDNNVDVFGGASKWPVETCEERLLDL	24.1 ± 0.47%	24.8 ± 0.78%	5.346 ± 0.033%	6.28 ± 1.3%	–
MKGLAAALLVLVCTMALCSCAQVGTNKELCCLVYTSWQIPQKFIVDYSETSPQCPKPGVILLTKRGRQICADPNKKWVQKYISDLKLNA	–	–	–	–	percentage of EdU-negative (MCF7; [12]): 26.2 ± 1.5%; percentage of EdU-negative (MCF7; [13]): 24.6 ± 2.4%; percentage of EdU-negative (hTERT-HMEC; [12]): 5.34 ± 1.1%; percentage of EdU-negative (hTERT-HMEC; [13]): 5.89 ± 1.1%
MKALGAVLLALLLFGRPGRGQTQQEEEEEDEDHGPDDYDEEDEDEVEEEETNRLPGGRSRVLLRCYTCKSLPRDERCNLTQNCSHGQTCTTLIAHGNTESGLLTTHSTWCTDSCQPITKTVEGTQVTMTCCQSSLCNVPPWQSSRVQDPTGKGAGGPRGSSETVGAALLLNLLAGLGAMGARRP [Q8IV16]	28.3 ± 1.3%	24.9 ± 0.96%	4.99 ± 0.54%	4.82 ± 0.83%	–
MIFPWKCQSTQRDLWNIFKLWGWTMLCCDFLAHHGTDCWTYHYSEKPMNWQRARRFCRDNYTDLVAIQNKAEIEYLEKTLPFSRSYYWIGIRKIGGIWTWVGTNKSLTEEAENWGDGEPNNKKNKEDCVEIYIKRNKDAGKWNDDACHKLKAALCYTASCQPWSCSGHGECVEIINNYTCNCDVGYYGPQCQFVIQCEPLEAPELGTMDCTHPLGNFSFSSQCAFSCSEGTNLTGIEETTCGPFGNWSSPEPTCQVIQCEPLSAPDLGIMNCSHPLASFSFTSACTFICSEGTELIGKKKTICESSGIWSNPSPICQKLDKSFSMIKEGDYNPLFIPVAVMVTAFSGLAFIIWLARRLKKGKKSKRSMNDPY	24.2 ± 0.78%	32.8 ± 4%	4.92 ± 0.1%	11.1 ± 1.2%	–
MNVLLGSVVIFATFVTLCNASCYFIPNEGVPGDSTRKCMDLKGNKHPINSEWQTDNCETCTCYETEISCCTLVSTPVGYDKDNCQRIFKKEDCKYIVVEKKDPKKTCSVSEWII	25.8 ± 1.8%	24.5 ± 0.81%	5.28 ± 0.77%	5.95 ± 1.1%	–
MGTSLLCWMALCLLGADHADTGVSQNPRHKITKRGQNVTFRCDPISEHNRLYWYRQTLGQGPEFLTYFQNEAQLEKSRLLSDRFSAERPKGSFSTLEIQRTEQGDSAMYLCASSL	27 ± 1.4%	26.8 ± 1.4%	5.02 ± 0.49%	6.26 ± 1.2%	–

Reference: the supplement of paper PMC11316812
